Laboratory results as given in publication PMC11506057, “Identification of Podoplanin Aptamers by SELEX for Protein Detection and Inhibition of Platelet Aggregation Stimulated by C-Type Lectin-like Receptor 2”.

T1: podoplanin (PDPN), recombinant PDPN-His-Fc (UniProt Q86YL7 23-131)
T1 sequence: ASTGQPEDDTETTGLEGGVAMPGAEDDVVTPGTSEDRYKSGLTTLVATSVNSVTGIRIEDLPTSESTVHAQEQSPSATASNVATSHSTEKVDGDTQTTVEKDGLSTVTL


Molecular target: T1, podoplanin (PDPN), recombinant …
Assay: BLI; BLI and dot blot: binding buffer B, 1x PBS, 5 mM MgCl2, 0.1% BSA, 0.01% yeast tRNA (BLI baseline in buffer A: 1x PBS, 5 mM MgCl2, 2 mM CaCl2, 1 mg/mL BSA, 0.1 mg/mL salmon sperm DNA); temperature and pH not given; flow cytometry at 4 C
Details: protein: commercial, tags: His
[1] = chain copies: 2, label: biotin, parallel G-quadruplex (CD), stem-loop predicted
[2] = chain copies: 2, label: biotin, antiparallel G-quadruplex or B-DNA (CD)

Row | Binder | Kd [1] [nM] | Kd [2] [nM] | other results
1 | A6 (structured_DNA) DNA: ATCCAGAGTGACGCAGCACACCGAGGGGACTGCTCGGGATTGCGGATGAGGTAGCAAGTGGACACGGTGGCTTAGT | 0.2 | – | –
2 | A1 (structured_DNA) DNA: ATCCAGAGTGACGCAGCATCACTAGTGCGCCAGGGGGACTGCTCGGGATTGCGGATACTGGACACGGTGGCTTAGT | – | – | Kd (chain copies: 2, label: biotin (BLI, dot blot, Western blot), FAM (flow cytometry), parallel G-quadruplex (CD), stem-loop predicted): 1.3 nM
3 | A289 (structured_DNA) DNA: ATCCAGAGTGACGCAGCACGGGTTTGGCGCCGGGCCTGGCGGGTGTAGCGTTTTTGGGTGGACACGGTGGCTTAGT | – | 0.5 | –
4 | A5 (structured_DNA) DNA: ATCCAGAGTGACGCAGCATGCCAAAGGGTCTGCTCGGGATTGCGGAGAGGGCTTGGGGTGGACACGGTGGCTTAGT | 0.2 | – | –
5 | A77 (structured_DNA) DNA: ATCCAGAGTGACGCAGCATGGGGGGAGAGTGTGGTCTGGCTTGGTGGGGTCTGGGGGCTGGACACGGTGGCTTAGT | 1.7 | – | –
6 | A1498 (structured_DNA) DNA: ATCCAGAGTGACGCAGCATGCAGGGTTTGGCTTCGGGCCTGGCGGAGAGAGCGTGAGGTGGACACGGTGGCTTAGT | – | 0.4 | –
